The text below walks through data of PMC12214560, “NAD-dependent dehydrogenases enable efficient growth of Paracoccus denitrificans on the PET monomer ethylene glycol” (Nature Communications, 2025).

Substrate in data set [1]: CCO
The data set is described as follows: purified protein. As to conditions: 100 mM glycine-NaOH pH 10, 2.4 mM NAD+, 30 °C, oxidation.

Substrate in data set [2]: CC(O)CO
The data set is described as follows: purified protein. The class given is biochemical, Paracoccus denitrificans. As to conditions: 100 mM glycine-NaOH pH 10, 2.4 mM NAD+, 30 °C, oxidation.

Substrate in data set [3]: CC=O
The data set is described as follows: purified protein. The class given is biochemical, Paracoccus denitrificans. As to conditions: 30 °C.

Substrate in data set [4]: CCCCO
The data set is described as follows: purified protein. The class given is biochemical, Paracoccus denitrificans. As to conditions: 100 mM glycine-NaOH pH 10, 2.4 mM NAD+, 30 °C, oxidation.

Substrate in data set [5]: CCCO
The data set is described as follows: purified protein. The class given is biochemical, Paracoccus denitrificans. As to conditions: 100 mM glycine-NaOH pH 10, 2.4 mM NAD+, 30 °C, oxidation.

Substrate in data set [6]: O=CCO
The data set is described as follows: purified protein. As to conditions: 30 °C. The class given is biochemical, Paracoccus denitrificans.

Substrate in data set [7]: OCCO
The data set is described as follows: purified protein. The class given is biochemical, Paracoccus denitrificans. As to conditions: 100 mM glycine-NaOH pH 10, 2.4 mM NAD+, 30 °C, oxidation.

Data set [8] deals with the molecule itself. The data set is described as follows: cryo-EM structure; protein purified by Ni-NTA and size exclusion in buffer C (100 mM sodium chloride, 25 mM potassium phosphate pH 8.0, 1 mM DTT); Titan Krios 300 kV, K3 detector; processed in RELION-5.0; homo-oligomer seen in the map.
Setting [9] is: 100 mM potassium phosphate pH 7.5, 0.2 mM NADH, reduction.
Where [10] appears, read: 100 mM potassium phosphate pH 7.5, 2.4 mM NAD+, oxidation.

Positions count from the first letter of the chain named. Names and notes keep the numbering of the source.

B1: EtgB, NAD-dependent alcohol dehydrogenase (Pden_2367) (enzyme, Paracoccus denitrificans DSM 413)
chain: MAKTMKAAVVREFGKPLTIDEVPVPEPGPGMIQVRIQASGVCHTDLHAAEGDWPVKPNPPFIPGHEGVGFVSAVGAGVKHVKEGDRVGVPWLYTACGHCRHCLGGWETLCESQLNTGYSVNGGFADYVVADPNYVGHLPKNVDFLDIAPVLCAGVTVYKGLKVTDTKPGDWVVISGIGGLGHMAVQYAKAMGMNVAAVDIDDEKLALARKLGATVTVNAATEPDPAAAIRKQTDGGAQGVLVTAVGRKAFEQAIGMVARGGTVALNGLPPGDFPLDIFGMVLNGITVRGSIVGTRLDLQESLDFAGDGKVKATVHKAKLEDINNIFGQMHKGQIEGRMVLDMAG
notes: The enzyme holds zinc ions; also called EtgB WT; alcohol dehydrogenase EtgB; source: E. coli BL21 AI, purified (Ni-NTA, desalting, size exclusion on Superdex 200 Increase)
Turning to B1, the Km (as a rule, the concentration of substrate that gives half-maximal velocity) in the data set “purified protein [1]” was found to be 120 ± 10 µM; in the data set “purified protein [2]” it was 59460 ± 3310 µM; in the data set “purified protein [3]” (setting [9]), 40 ± 10 µM; in “purified protein [4]” it was 40 ± 10 µM; in the data set “purified protein [5]”, 110 ± 10 µM; in “purified protein [6]” (setting [9]) it was 1040 ± 60 µM. Besides, the Km in the data set “purified protein [7]” was 11050 ± 1320 µM. Moreover, the kcat (commonly the number of substrate molecules converted per active site and unit of time at saturation) in “purified protein [1]” was found to be 23.5 s⁻¹; in the data set “purified protein [2]”, 3.5 ± 0.1 s⁻¹; in the data set “purified protein [3]” (setting [9]) it was 158 ± 2.9 s⁻¹; in the data set “purified protein [4]”, 8.4 ± 0.1 s⁻¹; in the data set “purified protein [5]”, 18.7 ± 0.5 s⁻¹; in the data set “purified protein [6]” (setting [9]), 50.1 ± 1.2 s⁻¹. The kcat in “purified protein [7]” is 7.2 ± 0.2 s⁻¹. Also, the kcat/Km (commonly the second-order rate constant that governs catalysis at low substrate concentration) in the data set “purified protein [1]” turned out to be 201000 M⁻¹ s⁻¹; in the data set “purified protein [2]” it was 59.6 ± 1 M⁻¹ s⁻¹; in the data set “purified protein [3]” (setting [9]) it was 3.84e+06 ± 240000 M⁻¹ s⁻¹; in “purified protein [4]”, 213000 ± 14000 M⁻¹ s⁻¹; in the data set “purified protein [5]”, 176000 ± 14000 M⁻¹ s⁻¹; in the data set “purified protein [6]” (setting [9]), 48300 ± 3200 M⁻¹ s⁻¹. Moreover, in the data set “purified protein [7]”, the kcat/Km worked out at 651 ± 22 M⁻¹ s⁻¹. Moreover, in data set [8], the stoichiometry N (commonly the number of molecules, sites or subunits per partner or assembly) came out at 4.

B2: EtgB (Paracoccus denitrificans PD1222; H47N/T44S) (protein)
chain: B1 chain with T44S, H47N
notes: pET16b, His-tagged, E. coli BL21 AI, Ni-NTA purified; homotetramer; zinc-dependent medium-chain alcohol dehydrogenase
Consider B2, for which, in the data set “purified protein [1]”, the Km turned out to be 100 ± 20 µM, the turnover number (kcat) was 10.7 s⁻¹ and the kcat/Km is 105000 M⁻¹ s⁻¹. For the same protein, in “purified protein [2]”, the Km worked out at 19750 ± 2980 µM, the kcat came out at 6.5 ± 0.2 s⁻¹ and the kcat/Km was 330 ± 11 M⁻¹ s⁻¹. In “purified protein [7]”, the Km came out at 11510 ± 1470 µM, the kcat is 2.9 ± 0.1 s⁻¹ and the kcat/Km amounted to 251 ± 5 M⁻¹ s⁻¹.

B3: EtgB (Paracoccus denitrificans PD1222; H47N) (protein)
chain: B1 chain with H47N
notes: as for B2
As to B3, the values for the Km in the data set “purified protein [1]”, in “purified protein [2]” and in the data set “purified protein [7]” were 230 ± 10 µM, 67180 ± 8900 µM and 53690 ± 4040 µM, respectively. For the same protein, the kcat in the data set “purified protein [1]” worked out at 25.2 s⁻¹; in “purified protein [2]”, 13.2 ± 0.6 s⁻¹; in “purified protein [7]”, 14.7 ± 0.3 s⁻¹. Further, the catalytic efficiency (kcat/Km) in “purified protein [1]” was 108000 M⁻¹ s⁻¹; in the data set “purified protein [2]”, 197 ± 8 M⁻¹ s⁻¹; in “purified protein [7]” it was 274 ± 6 M⁻¹ s⁻¹.

B4: EtgB (Paracoccus denitrificans PD1222; T44S) (protein)
chain: B1 chain with T44S
notes: as for B2
Turning to B4, in “purified protein [1]”, the Km turned out to be 100 ± 20 µM, the kcat amounted to 3.2 s⁻¹ and the kcat/Km was 33200 M⁻¹ s⁻¹. Further, in the data set “purified protein [2]”, the Km was determined as 27680 ± 1730 µM, the kcat was determined as 1.6 ± 0.1 s⁻¹ and the kcat/Km turned out to be 57.8 ± 0.7 M⁻¹ s⁻¹. In the data set “purified protein [7]”, the Km turned out to be 10170 ± 360 µM, the kcat stood at 0.7 ± 0.1 s⁻¹ and the kcat/Km was determined as 70.2 ± 2.6 M⁻¹ s⁻¹.

B5: EtgA, NAD-dependent aldehyde dehydrogenase (Pden_2366) (enzyme, Paracoccus denitrificans DSM 413)
chain: MPNDQTHPFRGVNALPFEERYDNFIGGEWVAPVSGRYFTNTTPITGAEIGQIARSEAGDIELALDAAHAAKEKWGATSPAERANIMLKIADRMERNLELLATAETWDNGKPIRETMAADLPLAIDHFRYFAGVLRAQEGSISQIDDDTVAYHFHEPLGVVGQIIPWNFPLLMACWKLAPAIAAGNCVVLKPAEQTPAGIMVWANLIGDLLPPGVLNIVNGFGLEAGKPLASSNRIAKIAFTGETTTGRLIMQYASENLIPVTLELGGKSPNIFFADVAREDDDFFDKALEGFTMFALNQGEVCTCPSRVLIQESIYDKFMERAVQRVQAIKQGDPRESDTMIGAQASSEQKEKILSYLDIGKKEGAEVLTGGKAADLGGELSGGYYIEPTIFRGNNKMRIFQEEIFGPVVSVTTFKDQAEALEIANDTLYGLGAGVWSRDANTCYRMGRGIKAGRVWTNCYHAYPAHAAFGGYKQSGIGRETHKMMLDHYQQTKNMLVSYSPKKLGFF
notes: EtgA, NAD-dependent aldehyde dehydrogenase of Paracoccus denitrificans DSM 413, gene Pden_2366 amplified from genomic DNA and cloned into pET16b; also called aldehyde dehydrogenase EtgA; source: E. coli BL21 AI, purified (Ni-NTA, desalting, size exclusion on Superdex 200 Increase)
For the protein B5, in the data set “purified protein [3]” (setting [10]), the Km stood at 9 ± 1 µM, the kcat worked out at 1.3 ± 0.1 s⁻¹ and the kcat/Km is 135000 ± 21000 M⁻¹ s⁻¹. For the same protein, in “purified protein [6]” (setting [10]), the Km was 120 ± 10 µM, the kcat stood at 6.3 ± 0.2 s⁻¹ and the kcat/Km was found to be 51300 ± 4900 M⁻¹ s⁻¹. In addition, the “stoichiometry N” value in data set [8] turned out to be 4.
